Assay results taken from patent publication US20250250357A1 (NANJING ZAIMING PHARMACEUTICAL, published 2025).
Numbering of substitutions follows the chain as printed.

B1: S009-F8-27.1 (antibody, human IgG1, kappa, V domains shown)
VH: EVQLVESGGGLVKPGGSLKLSCAASGFTFSSYAMSWVRQTPEKRLEWVATISDGGNYTYYPDNVKGRFTISRDNAKNNLYLQMSHLKSEDTAMYYCAGDRGYPYAMDSWGQGTSVTVSS
VL: NIMMTQSPSSLAVSAGEKVTMSCKSSQSVLYSSNQKNYLAWYQQKPGQSPKLLIYWASTRESGVPDRFTGSGSGTDFTLTISNVHAEDLAVYYCHQYLSSLTFGAGTKLELKR
B2: S009-F8-28.23 (antibody, human IgG1, kappa, V domains shown)
VH: B1 VH with G10D, N56S, K65E, P103S, M106L, S108Y
VL: B1 VL with N83S, H85Q
B3: S009-F8-29.1 (antibody, human IgG1, kappa, V domains shown)
VH: QVQLQQSGAELARPGASVKMSCKASGYTFISYTMHWVKQRPGQGLEWIGYINPSSGYTKYNQKFKDKATLTADKSSSTAYMQLNSLTSEDSAVYYCARYYSNPDYYAMDYWGQGTSVTVSS
VL: QIVLTQSPAIMSASPGEKVTITCSASSSVSYMHWFQQKPGTSPKLWIYSTSNLASGVPARFSGSGSGTSYSLTISRMEAEDAATYYCQQRSSYPLTFGGGTKLELKR
B4: S009-F8-31.22 (antibody, human IgG1, kappa, V domains shown)
VH: EVQLVESGGDLVKPGGSLKLSCAASGFTFSTYGMSWVRQTPDKRLEWVATISSGGSYTYYPDSLKGRFTISRDNAKNTLYLQMSSLKSEDTAMYYCARHEGYYYGKDYWGQGTTLTVSS
VL: DIVLTQSPATLSVTPGDSVSLSCRASHSISNNLHWYQQKSHESPRLLIKYASQSISGIPSKFSGSGSGTDFTLSINSVETEDFGMYFCQQTNSWPLTFGAGTKLELKR

Target: T1, human MSLN-R1-his protein (human, UniProt Q13421 296-390)
T1 construct: Region 1 of human mesothelin, made in HEK293E cells, His-tagged; also called human MSLN-R1 protein; hMSLN-R1-his; not shown: His tag
T1 chain: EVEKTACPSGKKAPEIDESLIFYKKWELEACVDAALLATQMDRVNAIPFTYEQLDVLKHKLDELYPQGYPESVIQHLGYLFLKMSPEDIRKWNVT
Assay: ELISA on coated MSLN-R1; antibody 0.001 nM

Binder | OD450 [OD450]
B1 | 0.04
B2 | 0.05
B3 | 0.04
B4 | 0.19

What follows are binders tested against T2, human MSLN-R3-his protein (human, UniProt Q13421 487-598) (assay: ELISA on coated MSLN-R3; antibody 0.01 nM).
T2 construct: Region 3 of human mesothelin, made in HEK293E cells, His-tagged; also called human MSLN-R3 protein; hMSLN-R3-his; not shown: His tag
T2 sequence (Q13421 495-606): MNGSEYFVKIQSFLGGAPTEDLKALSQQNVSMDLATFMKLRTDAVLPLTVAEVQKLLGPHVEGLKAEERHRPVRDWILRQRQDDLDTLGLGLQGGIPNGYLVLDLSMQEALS

Binder | OD450 [OD450]
B1 | 0.04
B2 | 0.07
B3 | 0.04
B4 | 0.04

These binders were tested against T3, human MSLN-R2-his protein (human, UniProt Q13421 391-486) (assay: ELISA on coated MSLN-R2; antibody 0.0001 nM).
T3 construct: Region 2 of human mesothelin, made in HEK293E cells, His-tagged; also called human MSLN-R2 protein; hMSLN-R2-his; not shown: His tag
T3 sequence (Q13421 other isoform, or with tags, fused parts or gaps): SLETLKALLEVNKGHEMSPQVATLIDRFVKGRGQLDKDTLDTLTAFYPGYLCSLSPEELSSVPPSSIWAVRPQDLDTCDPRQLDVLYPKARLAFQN

Binder | OD450 [OD450]
B1 | 0.04
B2 | 0.04
B3 | 0.05
B4 | 0.05

Each binder was assayed against T3, human MSLN-R2-his protein (assay: ELISA on coated MSLN-R2; antibody 100 nM).
Experimental: (§1) The plate was sealed with a plastic film and incubated at 4° C. overnight. The next day, the plate was washed twice with PBST, and a blocking buffer [PBS+2% (w/w) BSA] was added for blocking at room temperature for 2 h. The blocking buffer was discarded, and a chimeric antibody or negative control antibody serially diluted from 100 nM was added at 50 μL/well. After incubation at 37° C. for 2 h, the plate was washed 3 times with PBST. […] After incubation at 37° C. for 2 h, the plate was washed 5 times with PBST. A TMB substrate was added at 50 μL/well for incubation at room temperature for 5-10 min, and then a stop solution (1.0 N HCl) was added at 50 μL/well.

Binder | OD450 [OD450]
B1 | 0.05
B2 | 0.05
B3 | 0.06
B4 | 0.08

Each binder was assayed against T2, human MSLN-R3-his protein (assay: ELISA on coated MSLN-R3; antibody 100 nM).

Binder | OD450 [OD450]
B1 | 0.06
B2 | 0.07
B3 | 0.1
B4 | 0.13

These binders were tested against T2, human MSLN-R3-his protein (assay: ELISA on coated MSLN-R3; no antibody (blank)).

Binder | OD450 [OD450]
B1 | 0.05
B2 | 0.04
B3 | 0.04
B4 | 0.05

Each binder was assayed against T3, human MSLN-R2-his protein (assay: ELISA on coated MSLN-R2; antibody 0.1 nM).

Binder | OD450 [OD450]
B1 | 0.04
B2 | 0.04
B3 | 0.04
B4 | 0.05

These binders were tested against T2, human MSLN-R3-his protein (assay: ELISA on coated MSLN-R3; antibody 10 nM).
Experimental: as §1

Binder | OD450 [OD450]
B1 | 0.05
B2 | 0.05
B3 | 0.06
B4 | 0.07

Target: T1, human MSLN-R1-his protein
Assay: ELISA on coated MSLN-R1; no antibody (blank)
Experimental: as §1

Binder | OD450 [OD450]
B1 | 0.05
B2 | 0.04
B3 | 0.04
B4 | 0.05

Target: T1, human MSLN-R1-his protein
Assay: ELISA on coated MSLN-R1; antibody 1 nM
Experimental: as §1

Binder | OD450 [OD450]
B1 | 0.05
B2 | 0.04
B3 | 0.04
B4 | 2.05

The binders below were run against T3, human MSLN-R2-his protein (assay: ELISA on coated MSLN-R2; antibody 0.01 nM).
Experimental: as §1

Binder | OD450 [OD450]
B1 | 0.04
B2 | 0.04
B3 | 0.04
B4 | 0.04

These binders were tested against T2, human MSLN-R3-his protein (assay: ELISA on coated MSLN-R3; antibody 0.001 nM).
Experimental: as §1

Binder | OD450 [OD450]
B1 | 0.05
B2 | 0.04
B3 | 0.15
B4 | 0.04

Target: T1, human MSLN-R1-his protein
Assay: ELISA on coated MSLN-R1; antibody 0.1 nM
Experimental: as §1

Binder | OD450 [OD450]
B1 | 0.05
B2 | 0.04
B3 | 0.04
B4 | 1.95

Each binder was assayed against T3, human MSLN-R2-his protein (assay: ELISA on coated MSLN-R2; antibody 1 nM).
Experimental: as §1

Binder | OD450 [OD450]
B1 | 0.05
B2 | 0.04
B3 | 0.04
B4 | 0.04

Target: T1, human MSLN-R1-his protein
Assay: ELISA on coated MSLN-R1; antibody 10 nM

Binder | OD450 [OD450]
B1 | 0.08
B2 | 0.04
B3 | 0.04
B4 | 2.17

Target: T1, human MSLN-R1-his protein
Assay: ELISA on coated MSLN-R1; antibody 100 nM
Experimental: as §1

Binder | OD450 [OD450]
B1 | 0.35
B2 | 0.05
B3 | 0.05
B4 | 2.12

The binders below were run against T3, human MSLN-R2-his protein (assay: ELISA on coated MSLN-R2; no antibody (blank)).
Experimental: as §1

Binder | OD450 [OD450]
B1 | 0.05
B2 | 0.04
B3 | 0.04
B4 | 0.05

The binders below were run against T2, human MSLN-R3-his protein (assay: ELISA on coated MSLN-R3; antibody 0.0001 nM).
Experimental: as §1

Binder | OD450 [OD450]
B1 | 0.04
B2 | 0.04
B3 | 0.06
B4 | 0.04

Target: T1, human MSLN-R1-his protein
Assay: ELISA on coated MSLN-R1; antibody 0.0001 nM

Binder | OD450 [OD450]
B1 | 0.04
B2 | 0.04
B3 | 0.04
B4 | 0.08

Each binder was assayed against T2, human MSLN-R3-his protein (assay: ELISA on coated MSLN-R3; antibody 0.1 nM).
Experimental: as §1

Binder | OD450 [OD450]
B1 | 0.07
B2 | 0.04
B3 | 0.04
B4 | 0.04

Each binder was assayed against T2, human MSLN-R3-his protein (assay: ELISA on coated MSLN-R3; antibody 1 nM).
Experimental: as §1

Binder | OD450 [OD450]
B1 | 0.04
B2 | 0.04
B3 | 0.06
B4 | 0.05

Target: T1, human MSLN-R1-his protein
Assay: ELISA on coated MSLN-R1; antibody 0.01 nM

Binder | OD450 [OD450]
B1 | 0.04
B2 | 0.04
B3 | 0.04
B4 | 0.8

Each binder was assayed against T3, human MSLN-R2-his protein (assay: ELISA on coated MSLN-R2; antibody 0.001 nM).
Experimental: as §1

Binder | OD450 [OD450]
B1 | 0.05
B2 | 0.04
B3 | 0.04
B4 | 0.04

These binders were tested against T3, human MSLN-R2-his protein (assay: ELISA on coated MSLN-R2; antibody 10 nM).
Experimental: as §1

Binder | OD450 [OD450]
B1 | 0.05
B2 | 0.04
B3 | 0.04
B4 | 0.05
